Data published in paper PMC3001473 (PLoS ONE, 2010).

Molecular target: LcrV (V antigen) of Yersinia pestis (Yersinia pestis, UniProt P0C7U7 1-326)
Experiment: SPR; Biacore 3000; […]; HBS-P pH 7.4; […]
Details: both partners purified

Sequence of LcrV (V antigen) of Yersinia pestis (P0C7U7 whole entry): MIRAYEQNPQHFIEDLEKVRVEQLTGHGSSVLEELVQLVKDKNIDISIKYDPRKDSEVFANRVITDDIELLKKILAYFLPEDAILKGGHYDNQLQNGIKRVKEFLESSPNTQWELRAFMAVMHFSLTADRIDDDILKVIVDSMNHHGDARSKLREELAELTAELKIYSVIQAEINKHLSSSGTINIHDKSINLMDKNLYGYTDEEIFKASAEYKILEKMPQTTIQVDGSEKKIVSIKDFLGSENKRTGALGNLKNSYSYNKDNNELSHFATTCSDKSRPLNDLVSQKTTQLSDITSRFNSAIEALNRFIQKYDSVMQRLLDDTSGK

B1: wild-type human interferon-gamma (ligand, UniProt P01579 24-166, looked up)
chain: QDPYVKEAENLKKYFNAGHSDVADNGTLFLGILKNWKEESDRKIMQSQIVSFYFKLFKNFKDDQSIQKSVETIKEDMNVKFFNSNKKKRDDFEKLTNYSVTDLNVQRKAIHELIQVMAELSPAAKTGKRKRSQMLFRGRRASQ
notes: also called IFNγ; IFNγwt
Kd: 32 nM
